Laboratory results from patent US20230212319A1, “NOVEL ANTIGEN BINDING DOMAINS AND SYNTHETIC ANTIGEN RECEPTORS INCORPORATING THE SAME” (University of Southern California, priority 2020, published 2023).

How the values were obtained:
Format in all cases: cell-based
[1] = system: RAJI-CD19-KO cells; assay: JNG assay, co-culture with RAJI-CD19-KO cells; details: co-culture with Raji-CD19-KO
Procedure, shortened: (§1)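 Read-out is NFAT-driven GFP measured by flow cytometry after ~4–18 h co-culture of SAR-expressing JNG cells with target cells (E:T about 1:2). SARs were introduced by lentiviral spinfection and selected with puromycin or blasticidin when possible; scores (+/- to 5+ ≈ 5–50% GFP+) are relative to parental JNG cells.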

[2] = system: RS;411; assay: JNG assay, co-culture with RS;411 cells; details: co-culture with RS411
Procedure, shortened: as §1

[3] = system: RAJI cells; assay: JNG assay, co-culture with RAJI cells; details: JNG cells expressing construct, co-culture with Raji
Procedure, shortened: as §1

[4] = system: U-87 MG; assay: JNG NFAT-GFP assay, co-culture with U-87 MG cells

B1: 22169 (protein)
chain: MALPVTALLLPLALLLHAARPEVQLVESGGGLVQPGGSLRLSCAASGFASDYYIIGWFRQAPGKEREGVSCISSRYANTNYADSVKGRFTISRDNAKNTVYLQMNSLKPEDTAVYYCAADTRRYTCPDIATMHRNFDSWGQGTLVTVSSGTGGGGSGGGGSGGGGSEFDIQMTQSPSSLSASVGDRVTITCKASDHINNWLAWYQQKPGQAPKLLIYGATTLETGVPSRFSGSGSGTDYTLTISSLQPEDFATYYCQQSWNTPWTFGQGTKLEIKRLEIQNPDPAVYQLRDSKSSDKSVCLFTDFDSQTNVSQSKDSDVYITDKCVLDMRSMDFKSNSAVAWSNKSDFACANAFNNSIIPEDTFFPSSDVPCDVKLVEKSFETDTNLNFQNLSVIGFRILLLKVAGFNLLMTLRLWSSRAKRSGSGVKQTLNFDLLKLAGDVESNPGPTSATMDWIWRILFLVGAATGAHSGPQVQLQESGGGLAQAGGSLRLSCAASGRTFSMGWFRQAPGKEREFVAAITYSGGSPYYASSVRGRFTISRDNAKNTVYLQMNSLKPEDTAVYYCAANPTYGSDWNAENWGQGTQVTVSSGSGGGGSGGGGSGGGGSFEQVQLQQPGAELVKPGASVKMSCKASGYAFSSYWINWMKQKPGQGLEWIGQIYPGDGDTNYNGKFKGRATLTADTSSSTAYMQLSSLTSEDSAVYFCARSITTVVGCAMDYWGQGTSVTVSSTREDLKNVFPPEVAVFEPSKAEIAHTQKATLVCLATGFYPDHVELSWWVNGKEVHSGVCTDPQPLKEQPALNDSRYCLSSRLRVSATFWQNPRNHFRCQVQFYGLSENDEWTQDRAKPVTQIVSAEAWGRADCGITSASYHQGVLSATILYEILLGKATLYAVLVSALVLMAMVKRKDSRGRAKRSGSGATNFSLLKQAGDVEENPGPSRGHMTEYKPTVRLATRDDVPRAVRTLAAAFADYPATRHTVDPDRHIERVTELQELFLTRVGLDIGKVWVADDGAAVAVWTTPESVEAGAVFAEIGPRMAELSGSRLAAQQQMEGLLAPHRPKEPAWFLATVGVSPDHQGKGLGSAVVLPGVEAAERAGVPAFLETSAPRNLPFYERLGFTVTADVEVPEGPRTWCMTRKPGA
[1]
  NFAT-GFP ASSAY: Raji-CD19-KO: 4+ (refer to approximately 5%, 10%, 20%, 30%, 40% and 50% GFP positive cells)
[2]
  NFAT-GFP ASSAY: RS411: 2+ (refer to approximately 5%, 10%, 20%, 30%, 40% and 50% GFP positive cells)
[3]
  NFAT-GFP ASSAY: Raji: 3+ (refer to approximately 5%, 10%, 20%, 30%, 40% and 50% GFP positive cells)
[4]
  NFAT-GFP ASSAY: U-87 MG: 3+ (refer to approximately 5%, 10%, 20%, 30%, 40% and 50% GFP positive cells)
